Measured values as given in patent publication US5639663, “Bifunctional genetic markers” (National Research Council of Canada, dated 1997).

Biological target: beta-glucuronidase (GUS), unfused, expressed from pGK1 (E. coli, UniProt P05804)
Test: molecular sieve chromatography (Superose 6) of E. coli extract co-expressing unfused GUS and NPT-II; enzyme activities of the fractions

B1: neomycin phosphotransferase-II (NPT-II), unfused, expressed from pGS39 (enzyme)
chain: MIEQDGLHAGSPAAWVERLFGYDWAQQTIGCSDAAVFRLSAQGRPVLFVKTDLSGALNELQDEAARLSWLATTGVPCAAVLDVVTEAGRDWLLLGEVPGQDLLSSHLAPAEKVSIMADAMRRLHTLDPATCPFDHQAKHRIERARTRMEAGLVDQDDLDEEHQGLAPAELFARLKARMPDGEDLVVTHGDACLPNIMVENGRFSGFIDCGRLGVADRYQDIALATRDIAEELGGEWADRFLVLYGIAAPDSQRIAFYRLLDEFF
B1: no binding.
